System: Nc1ccccc1C(=O)O
Test: Michaelis-Menten chlorination assay, HPLC, Fre-coupled
Type: biochemical, Pseudomonas fluorescens
Conditions: Fre in excess, 30 °C
Text: Michaelis-Menten chlorination assay, HPLC, Fre-coupled on PrnA

Substance | Km [µM] | kcat [s⁻¹] | kcat/Km [M⁻¹ s⁻¹]
PrnA (Pseudomonas fluorescens; E450K/F454R) | 378 ± 59 | 0.0212 ± 0.00117 | 56.7 ± 10
PrnA (Pseudomonas fluorescens; F454K) | 3628 ± 1108 | 0.061 ± 0.0112 | 16.7 ± 6.67
PrnA (Pseudomonas fluorescens; E450K) | 384 ± 93 | 0.0155 ± 0.000833 | 40 ± 10
PrnA (Pseudomonas fluorescens; E450K/F454K) | 205 ± 16 | 0.0303 ± 0.000667 | 148 ± 11.7

— PMC5659210, “Extending the biocatalytic scope of regiocomplementary flavin-dependent halogenase enzymes” (Chemical Science, 2015)
